Values belong to the molecule of their own block, whether it stands above or below them.
Assays:
[1] = molecular target: BppUct (C-terminal portion of Tuc2009 BppU, residues 194 to 322) (Lactococcus phage Tuc2009); assay: crystal structure
[2] = molecular target: Tuc2009 BppL (RBP) as in the tripod (Lactococcus phage Tuc2009); assay: crystal structure
[3] = molecular target: trypsin-cleaved Tuc2009 RBP head domain (in the nano-L06 complex) (Lactococcus phage Tuc2009); assay: crystal structure
[4] = molecular target: serendipitously cleaved BppL head domain (residues 52 to 173) in the tripod crystal (Lactococcus phage Tuc2009); assay: crystal structure
[5] = molecular target: T1, phage Tuc2009 receptor binding protein (RBP, BppL, ORF53) (Lactococcus phage Tuc2009); assay: BLI
T1 chain: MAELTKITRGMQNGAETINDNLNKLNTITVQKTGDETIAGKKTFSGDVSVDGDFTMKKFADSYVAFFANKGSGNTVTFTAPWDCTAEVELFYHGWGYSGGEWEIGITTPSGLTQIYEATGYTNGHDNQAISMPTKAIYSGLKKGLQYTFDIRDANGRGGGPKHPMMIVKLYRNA

[6] = molecular target: T2, Tuc2009 tripod BppUctAL complex (BppUct/BppA/BppL) (Lactococcus phage Tuc2009); assay: BLI
T2 chain 1: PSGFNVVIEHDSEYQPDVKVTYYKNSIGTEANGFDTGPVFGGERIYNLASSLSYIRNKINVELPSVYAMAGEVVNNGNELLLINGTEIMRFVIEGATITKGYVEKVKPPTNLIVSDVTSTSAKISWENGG
T2 chain 2: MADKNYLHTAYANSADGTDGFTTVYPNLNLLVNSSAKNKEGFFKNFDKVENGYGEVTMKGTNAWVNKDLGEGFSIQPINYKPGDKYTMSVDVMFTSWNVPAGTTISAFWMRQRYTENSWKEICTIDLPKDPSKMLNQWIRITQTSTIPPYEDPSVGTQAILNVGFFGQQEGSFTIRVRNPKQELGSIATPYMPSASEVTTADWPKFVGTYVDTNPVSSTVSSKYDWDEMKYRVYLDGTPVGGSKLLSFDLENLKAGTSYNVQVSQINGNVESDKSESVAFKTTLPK
T2 chain 3: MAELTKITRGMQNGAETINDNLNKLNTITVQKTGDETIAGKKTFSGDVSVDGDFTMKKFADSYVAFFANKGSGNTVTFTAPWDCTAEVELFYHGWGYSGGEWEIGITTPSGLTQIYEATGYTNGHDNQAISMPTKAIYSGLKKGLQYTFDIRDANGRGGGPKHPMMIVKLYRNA

Molecule: trypsin-cleaved Tuc2009 RBP head domain (in the nano-L06 complex) (domain or fragment)
stoichiometry N [3]: 3

Molecule: serendipitously cleaved BppL head domain (residues 52 to 173) in the tripod crystal (domain or fragment)
stoichiometry N [4]: 3

B1: nanobody nano-L06 (VHH)
VHH: QVQLVESGGGSVQAGGSLRLSCTASGFTFDDSDMGWYHQAPGNECELVSAIFSDGSTYYADSVKGRFTISRDNAKNTVYLQMNSLKPEDTAMYYCAAATTTVASPPVRHVCNGYWGQGTQVTVSS
Kd [5]: 9.1 ± 0.7 nM | Kd [6]: 9.1 ± 0.6 nM

Continued, values first:

stoichiometry N [1]: 3
Molecule: BppUct (C-terminal portion of Tuc2009 BppU, residues 194 to 322) (domain or fragment)

stoichiometry N [2]: 3
Molecule: Tuc2009 BppL (RBP) as in the tripod (natural protein)
